Assay [1] has as its target T1, GST-Connector Enhancer PDZ domain 1 (Homo sapiens (Human)), Q969H4.
T1 chain: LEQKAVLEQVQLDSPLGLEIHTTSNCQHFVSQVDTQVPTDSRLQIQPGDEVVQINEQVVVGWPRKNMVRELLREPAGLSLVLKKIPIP
As to the kind of experiment: G' assay. Further: key of the grades not given here.

Assay [2] deals with T2, GST-NeDLG PDZ domain 1 (Mus musculus (Mouse)), P70175.
T2 chain: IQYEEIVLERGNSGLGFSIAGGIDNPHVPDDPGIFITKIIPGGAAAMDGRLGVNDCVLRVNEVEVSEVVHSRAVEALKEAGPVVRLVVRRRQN
Nature of the assay: G' assay. Further: key of the grades not given here.

Assay [3] addresses T3, GST-EZRIN Binding Protein 50 PDZ domain 2 (Homo sapiens (Human)), O14745.
T3 chain: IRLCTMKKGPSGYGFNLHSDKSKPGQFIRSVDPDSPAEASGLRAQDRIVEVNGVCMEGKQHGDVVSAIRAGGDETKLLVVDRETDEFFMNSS
As to the kind of experiment: G' assay. Further: key of the grades not given here.

In assay [4] the target is GST-Unnamed Protein PDZ domain 2 [GST: P08515]. As to the kind of experiment: G' assay. Further: key of the grades not given here.
For assay [5], the target named is T4, GST-SITAC-18 PDZ domain 1 (Homo sapiens (Human)), Q9H190.
T4 chain: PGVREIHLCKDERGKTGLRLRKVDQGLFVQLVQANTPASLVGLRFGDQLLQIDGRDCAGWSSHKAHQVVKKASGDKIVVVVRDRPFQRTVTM
As to the kind of experiment: G' assay. Further: key of the grades not given here.

In assay [6] the target is T5, GST-KIAA1284 PDZ domain 1 (Homo sapiens (Human)), Q9ULD6.
T5 chain: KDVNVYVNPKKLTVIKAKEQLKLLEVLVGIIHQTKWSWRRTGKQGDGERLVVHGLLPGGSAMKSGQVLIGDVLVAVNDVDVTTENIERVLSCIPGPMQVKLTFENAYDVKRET
As to the kind of experiment: G' assay. Further: key of the grades not given here.

Assay [7] has as its target T6, GST-X-11 beta PDZ domain 1 (Rattus norvegicus (Rat)), O35431.
T6 chain: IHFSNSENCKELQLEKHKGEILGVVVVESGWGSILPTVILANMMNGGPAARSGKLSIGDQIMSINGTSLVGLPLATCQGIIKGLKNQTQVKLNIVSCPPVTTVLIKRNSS
As to the kind of experiment: G' assay.

Assay [8] concerns the target T7, GST-SITAC-18 PDZ domain 2 (Homo sapiens (Human)), Q9H190.
T7 chain: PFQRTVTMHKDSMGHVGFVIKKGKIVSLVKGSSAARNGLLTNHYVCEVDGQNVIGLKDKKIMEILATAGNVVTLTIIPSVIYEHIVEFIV
As to the kind of experiment: G' assay.

Assay [9] addresses T8, GST-MUPP1 PDZ domain 6 (Homo sapiens (Human)), O75970.
T8 chain: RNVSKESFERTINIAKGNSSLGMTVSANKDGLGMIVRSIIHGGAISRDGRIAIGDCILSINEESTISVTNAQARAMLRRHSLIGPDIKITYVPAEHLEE
As to the kind of experiment: G' assay.

The target of assay [10] is GST-CARD14 PDZ domain 1 (Homo sapiens (Human)), Q9BXL6. Nature of the assay: G' assay. Further: key of the grades not given here.
Assay [11] deals with T9, GST-ZO-3 PDZ domain 2 (Homo sapiens (Human)), O95049.
T9 chain: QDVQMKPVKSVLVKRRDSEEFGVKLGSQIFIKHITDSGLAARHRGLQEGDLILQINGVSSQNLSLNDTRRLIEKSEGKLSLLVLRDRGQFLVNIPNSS
Nature of the assay: G' assay.

In assay [12] the target is T10, GST-Atrophin-1 Interacting Protein PDZ domain 6 (Rattus norvegicus (Rat)), O88382.
T10 chain: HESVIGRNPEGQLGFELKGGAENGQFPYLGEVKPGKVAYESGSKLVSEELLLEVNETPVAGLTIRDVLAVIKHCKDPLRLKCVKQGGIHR
As to the kind of experiment: G' assay.

The target of assay [13] is T11, GST-DLG5 PDZ domain 2 (Homo sapiens (Human)), Q8TDM6.
T11 chain: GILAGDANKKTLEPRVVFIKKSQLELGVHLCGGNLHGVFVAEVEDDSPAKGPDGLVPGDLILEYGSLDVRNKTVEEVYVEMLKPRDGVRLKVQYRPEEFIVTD
Nature of the assay: G' assay.

The target in assay [14] is T12, GST-MUPP1 PDZ domain 2 (Homo sapiens (Human)), O75970.
T12 chain: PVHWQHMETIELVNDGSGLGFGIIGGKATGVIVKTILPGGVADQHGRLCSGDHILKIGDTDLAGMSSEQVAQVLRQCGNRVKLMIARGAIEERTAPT
As to the kind of experiment: G' assay.

Assay [15] has as its target T13, GST-DVL2 PDZ domain 1 (Homo sapiens (Human)), O14641.
T13 chain: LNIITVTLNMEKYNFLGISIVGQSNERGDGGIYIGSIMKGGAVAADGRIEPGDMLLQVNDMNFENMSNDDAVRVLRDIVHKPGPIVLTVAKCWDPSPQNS
As to the kind of experiment: G' assay.

The target of assay [16] is T14, GST-TIP-1 (Example 3) (human), O14907.
T14 chain: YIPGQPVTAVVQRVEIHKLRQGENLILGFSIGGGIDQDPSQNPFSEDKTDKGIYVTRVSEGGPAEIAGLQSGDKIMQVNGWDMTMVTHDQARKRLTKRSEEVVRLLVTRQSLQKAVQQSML
As to the kind of experiment: ratio of G assay Kd values.

For assay [17], the target named is GST-DLG2 PDZ domain 1 (Homo sapiens (Human)), Q15700. As to the kind of experiment: G' assay. Further: key of the grades not given here.
The target of assay [18] is T15, GST-FLJ11215 PDZ domain 1 (Mus musculus (Mouse)), O88952.
T15 chain: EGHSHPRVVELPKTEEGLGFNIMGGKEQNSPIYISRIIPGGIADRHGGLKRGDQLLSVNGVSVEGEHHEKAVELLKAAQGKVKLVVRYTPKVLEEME
Nature of the assay: G' assay.

Assay [19] has as its target T16, GST-KIAA0380 PDZ domain 1 (Homo sapiens (Human)), O15085.
T16 chain: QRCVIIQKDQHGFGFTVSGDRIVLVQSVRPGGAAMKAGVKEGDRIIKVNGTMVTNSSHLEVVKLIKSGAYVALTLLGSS
Nature of the assay: G' assay.

In assay [20] the target is T17, GST-Syntrophin 1 alpha PDZ domain 1 (Homo sapiens (Human)), Q13424.
T17 chain: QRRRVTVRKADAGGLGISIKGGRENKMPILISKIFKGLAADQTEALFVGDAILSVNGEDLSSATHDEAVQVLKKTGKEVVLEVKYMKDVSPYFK
Nature of the assay: G' assay.

Read-outs that look alike come from different tables or passages of the source.

Sequence of GST-CARD14 PDZ domain 1 (Homo sapiens (Human)), Q9BXL6 (Q9BXL6 565-664): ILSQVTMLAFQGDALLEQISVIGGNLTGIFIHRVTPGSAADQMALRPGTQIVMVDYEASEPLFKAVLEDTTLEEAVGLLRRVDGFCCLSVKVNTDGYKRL
Sequence of GST-Unnamed Protein PDZ domain 2 [GST: P08515] (P08515 whole entry, the tested form may be a part): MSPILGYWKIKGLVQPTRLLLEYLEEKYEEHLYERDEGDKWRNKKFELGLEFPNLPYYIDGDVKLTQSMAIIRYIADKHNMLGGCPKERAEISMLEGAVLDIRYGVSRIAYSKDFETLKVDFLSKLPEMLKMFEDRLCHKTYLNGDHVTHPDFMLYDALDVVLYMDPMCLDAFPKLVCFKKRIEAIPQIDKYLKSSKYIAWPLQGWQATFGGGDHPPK

VGTLLLERVIFPSVKIATLV (modifications not checked) [AdenoE4 typ9]: the Classification in [1] came out at 3 A450 class; in assay [2], 1 A450 class.

For AWDDSARAAGGQGLHVTAL (modifications not checked) [LPAP], the figures for the Classification in assay [3] and in [4] were 4 A450 class and 3 A450 class, respectively.

For the molecule PIPAGGCTFSGIFPTLTSPL (modifications not checked) [KIA 1481], the Classification in [3] was found to be 2 A450 class.

Take ILNSIQVMRAQMNQIQSVEV (modifications not checked) [ephrin B2]: the Classification in assay [5] came to 3 A450 class; in assay [6] it was 1 A450 class; in assay [7], 2 A450 class; in assay [8], 3 A450 class; in assay [9], 2 A450 class; in assay [10], 1 A450 class. The Classification in assay [11] came to 2 A450 class; in assay [12] it was 1 A450 class; in assay [13] it was 1 A450 class.

For ELLQFCRTPNPALKNGQYWV (modifications not checked) [CSPG4 (chondroitin sulfae proteoglycan 4, melanoma-associated)], the Classification in assay [14] and in assay [15] was 5 A450 class in each case.

For the molecule QISPGGLEPPSEKHFRETEV (modifications not checked) [TAX], in [16], the fold stronger binding than CD95 was over 3000 fold. The Classification in assay [1] (remark: other sources report otherwise) was 1 A450 class; in assay [17], 2 A450 class; in [18], 1 A450 class.

KTMPAAMYRLLTAQEQPVYI (modifications not checked) [MINT-1]: the Classification in assay [14] is 1 A450 class; in assay [15] it was 2 A450 class.

Regarding HDFRRAFKKILARGDRKRIV (modifications not checked) [alpha-2A Adrenergic receptor], the Classification came to 1 A450 class in [4]; 4 A450 class in [5]; 1 A450 class in assay [6]; 2 A450 class in assay [7]; 4 A450 class in assay [8]; 2 A450 class in [9]. Also, the Classification was found to be 1 A450 class in [10], 3 A450 class in [11], 1 A450 class in [12] and 1 A450 class in assay [13].

Take TQGFPGPATWRRISSLESEV (modifications not checked) [NMDA Glutamate Receptor 2C (cysteine-free)]: the Classification in assay [17] came to 4 A450 class; in assay [19], 1 A450 class; in assay [18], 1 A450 class; in [2], 2 A450 class; in assay [20], 4 A450 class.

As to VPGALDYAAFSSALYGESDL (modifications not checked) [a-actinin 2], the values for the Classification in [19] and in assay [20] were 1 A450 class and 3 A450 class, respectively.

The values above are taken from US20050282743A1, “Molecular interactions in cells” (Arbor Vita Corporation, priority 2001, published 2005).
